Substitutions are numbered along the chain they refer to.
B1: 37E1B5 antibody (antibody, V domains shown)
VH: EVQLVESGGGLVQPGGSLNLSCAVSGFVFSRYWMSWVRQAPGKGLEWIGEINPDSSTINYTSSLKDKFIISRDNAKNTLYLQMNKVRSEDTALYYCACLITTEDYWGQGTSVTVSS
VL: QIVLTQSPSSMYASLGERVTIPCKASQDINSYLSWFQQKPGKSPKTLIYYANRLVDGVPSRFSGSGSGQDYSLTISSLEYEDMGIYYCLQYDEFPYTFGGGTKLEIK
B2: 14E5 antibody (antibody, V domains shown)
VH: EVQLQQSGAELMKPGASVKISCKATGYTFSTYWIEWIKQRPGHGLEWIGHILPGSVITNYNEKFKGKAAITADTSSNTSYMQLSSLTSEDSAVYYCARWGWDSYWGQGTLVTVSS
VL: DIEMTQSPSSLSASLGDRVTISCSTSQDISSSLNWYQQKPDGTVTLLIYYTSNLHSGVPSRFSGSGSGTDYSLTISNLEPEDIATYYCQQYSKLPYTFGGGTKLEIKR
notes: Mouse hybridoma antibody; also called hybridoma clone 14E5
B3: 11E8 antibody (antibody, V domains shown)
VH: EVQLQQSGPELMKTGASVKISCKATGYTFSSYWIEWVKQRPGHGLEWIGDILPGSGTTNYNEKFKGRATVTADRSSNTAYMQLSSLTYGDSAVYYCATWGWDTYWDQGTSVTVSS
VL: B2 VL with E3V, T25A, D28G, S31N, S32Y, T45K, N53S, K93N
notes: Mouse hybridoma antibody

Experiments:
[1] = molecular target: T1, human integrin β8 swap construct KKMAFY (SEQ ID NO:131) (human, UniProt P26012 43-769); assay: cell staining of β8 amino acid swap constructs (175-180)
T1 sequence: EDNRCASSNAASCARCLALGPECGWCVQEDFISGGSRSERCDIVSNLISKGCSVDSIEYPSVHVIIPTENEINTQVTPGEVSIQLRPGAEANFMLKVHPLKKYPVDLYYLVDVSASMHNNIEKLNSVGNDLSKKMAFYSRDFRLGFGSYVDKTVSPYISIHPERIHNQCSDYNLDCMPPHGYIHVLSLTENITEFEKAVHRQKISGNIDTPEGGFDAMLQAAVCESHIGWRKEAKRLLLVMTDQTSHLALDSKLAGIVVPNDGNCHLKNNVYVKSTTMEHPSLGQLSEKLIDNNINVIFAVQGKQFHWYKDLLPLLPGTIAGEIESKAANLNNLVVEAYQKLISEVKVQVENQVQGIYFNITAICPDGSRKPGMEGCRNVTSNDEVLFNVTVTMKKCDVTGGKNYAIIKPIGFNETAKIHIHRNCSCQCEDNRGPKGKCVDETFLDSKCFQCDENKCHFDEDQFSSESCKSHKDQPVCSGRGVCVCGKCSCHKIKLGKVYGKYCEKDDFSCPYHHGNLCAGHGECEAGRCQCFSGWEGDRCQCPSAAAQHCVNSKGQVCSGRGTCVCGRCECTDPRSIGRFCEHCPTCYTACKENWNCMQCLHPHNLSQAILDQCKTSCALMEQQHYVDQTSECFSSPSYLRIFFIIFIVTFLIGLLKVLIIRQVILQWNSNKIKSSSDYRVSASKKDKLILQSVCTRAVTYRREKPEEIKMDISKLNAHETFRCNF

mouse integrin β8 = molecular target: T2, mouse integrin β8 (mouse, UniProt Q0VBD0 22-767); assay: cell surface staining, flow cytometry
T2 construct: whole, on cells; also called mouse β8; itgb8
T2 sequence (looked up): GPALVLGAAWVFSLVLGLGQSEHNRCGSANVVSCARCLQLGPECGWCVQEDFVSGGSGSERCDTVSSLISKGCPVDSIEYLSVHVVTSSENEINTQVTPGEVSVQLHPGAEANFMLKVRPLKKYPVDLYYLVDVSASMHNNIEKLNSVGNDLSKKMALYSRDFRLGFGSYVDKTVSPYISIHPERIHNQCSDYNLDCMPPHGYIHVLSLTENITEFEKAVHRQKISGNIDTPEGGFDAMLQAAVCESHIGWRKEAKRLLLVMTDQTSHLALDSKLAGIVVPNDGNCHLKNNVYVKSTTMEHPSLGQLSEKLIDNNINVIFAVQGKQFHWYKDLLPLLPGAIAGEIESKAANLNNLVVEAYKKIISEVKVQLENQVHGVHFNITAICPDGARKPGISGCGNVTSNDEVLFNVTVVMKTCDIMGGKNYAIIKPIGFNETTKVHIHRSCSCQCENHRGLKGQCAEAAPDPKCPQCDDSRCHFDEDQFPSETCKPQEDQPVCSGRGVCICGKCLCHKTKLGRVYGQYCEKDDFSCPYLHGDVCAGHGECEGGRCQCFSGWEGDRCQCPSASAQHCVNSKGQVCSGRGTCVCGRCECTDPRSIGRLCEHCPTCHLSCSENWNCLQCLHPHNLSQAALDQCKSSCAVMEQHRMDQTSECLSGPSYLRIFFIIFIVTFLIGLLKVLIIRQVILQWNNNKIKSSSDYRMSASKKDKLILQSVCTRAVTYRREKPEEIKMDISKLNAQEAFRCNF

Row | Binder | % positive [1] [%] | binding result (mouse integrin β8)
1 | B1 | 3 | –
2 | B2 | 6 | no binding
3 | B3 | 31 | no binding
